Experimental data as given in PMC4470572 (Nature communications, 2014).

Target: the molecule itself
Experiment: single-molecule photobleaching step analysis

B1: DIC1-eGFP-3xFLAG (dynein intermediate chain 1) (natural protein, mouse, UniProt O88485 1-628, looked up)
chain: MSDKSDLKAELERKKQRLAQIREEKKRKEEERKKKEADMQQKKEPVQDDSDLDRKRRETEALLQSIGISPEPPLVPTPMSPSSKSVSTPSDAGSQDSGDLGPLTRTLQWDTDPSVLQLQSDSELGRRLHKLGVSKVTQVDFLPREVVSYSKETQTPLATHQSEEDEEDEEMVEPKIGHDSELENQEKKQETKEAPPRELTEEEKQQILHSEEFLIFFDRTIRVIERALAEDSDIFFDYSGRELEEKDGDVQAGANLSFNRQFYDEHWSKHRVVTCMDWSLQYPELMVASYSNNEDAPHEPDGVALVWNMKFKKTTPEYVFHCQSSVMSVCFARFHPNLVVGGTYSGQIVLWDNRSHRRTPVQRTPLSAAAHTHPVYCVNVVGTQNAHNLITVSTDGKMCSWSLDMLSTPQESMELVYNKSKPVAVTGMAFPTGDVNNFVVGSEEGTVYTACRHGSKAGIGEVFEGHQGPVTGINCHMAVGPIDFSHLFVTSSFDWTVKLWTTKHNKPLYSFEDNADYVYDVMWSPVHPALFACVDGMGRLDLWNLNSDTEVPTASVAIEGASALNRVRWAQGGKEVAVGDSEGRIWIYDVGELAVPHNDEWTRFARTLVEIRANRADSEEEGAVELAA
  stoichiometry N: 2
